In patent publication US20230189818A1, “RNA-BASED CONTROL OF BOTRYTIS” (priority 2021, published 2023):

Experiments:
Botrytis cinerea conidia = assay: In vitro liquid-based assay (fungal biomass, 96-well plates, Cytation 5); format: cell-based; conditions: co-incubated with conidia for three days, vs untreated control
Procedure, shortened: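 Conidia (5000/mL stock) were co-incubated with dsRNA or control treatments in pH 6.0 minimal medium. Incubation ran 72 h at 23 °C, shaking at 120 rpm under continuous light. Fungal biomass was measured by brightfield imaging (8 slices per well, 2.5× lens) and expressed as average reduction versus control.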

B. cinerea = assay: Open-air field trial on snap bean (Example 4.3, AUDPC of % disease severity); format: in vivo, Botrytis cinerea; conditions: Switch 525 g ai/ha, GS349 20 and 40, GS2280 10 and 40, GS2303 10, 20 and 40, GS2297 20 g ai/ha, FIG. 9
Procedure: RNAi compositions, each containing a dsRNA comprising a trigger sequence (GS349, GS2280, GS2303, or GS2297) described herein were evaluated for ability to control botrytis on snap bean in open-air filed trials. All test samples were formulated with RO water, propylene glycol, a linear alcohol ethoxylate, a lignosulfanate, sodium citrate dihydate, a polyacrylic acid polymer, two biocide compositions, anhydrous citric acid, and an antifoam, all of which are readily commercially available. Formulation samples were tank mixed with a standard adjuvant, the non-ionic surfactant, Activator 90 0.125%v/v. Compositions were tested at concentrations of 10, g ai/ha, 20 g ai/ha, and 40 g ai/ha. Positive controls were a chemical standard, Switch 525 g ai/ha and a biological standard, Double Nickel LC 9.4 I/ha, both of which were also tank mixed with Activator 90 0.125% v/v. As above, an untreated check was used as a negative control.
Compositions were applied to snap bean plants using a small plot sprayer delivering 50 gallons of water per acre. A total of three applications were used for each sample and positive control. Disease state was evaluated beginning 8 days after the first application and ending 37 days after the third and final application. Percent Disease Severity was assessed and AUDPC was calculated in the same manner as noted in Example 4.1.

B1: GS2303: dsRNA trigger targeting B. cinerea Bcded1 (XM_001550339.2); trigger SEQ ID NO 24, RNA 36, reverse complement 48 (nucleic acid, listed as Botrytis cinerea)
sense: GGGCUAUAUAAGCUUUCAUCUAGGUUUUCCAAGAAACGCAUUACGAUAGACAUGUUCUCCAAAAAUCUUACUGGUCCUGCUUUCAGCAUUUCCAUGGAUCAUGAAGUCCUCCACUAUGGAAGAUUUGCAAAAUAUUUUCGACAUUGCAUUUUGCUGCAUUUCGCAUUUCUAGAUAGAAAAAAAGUGGGAUUCAUAUUCUCGAUAUUUUCUUCGUUGUCUUUUAUUCACAAGACACAUGGCAAGGGAGGAUACCAUUUGAGAGCUUGAAUUGAAGGCUUUCCUCUUACUUUUUUUAUUUUUCACAUCAUCUACGAGUGGGCGUCUUUUACGAUCAAAUCGAUAUACGACAGUGGCACAAAAUAGAAUAGGCAUUUCUCUUCUUAAAAAAGAUUUAAGGGAAGAGUUGGUGCUUGUUCUCUAUAACGCUGAUGGCAUUCGGAAGUGCUCCUGUCCAUUCAGGCUGAGACUGAGACCCAAAAUGUUGGCAGGUACGGCAGAAAGAAGUCUGCUUCAUAUGAUUGAUGGAGGAAGAAAGAAAUAUGGAAUGCGAUGGAUGAGUAAUUACUUUAAAUGAAUAUGAAAA
antisense: UUUUCAUAUUCAUUUAAAGUAAUUACUCAUCCAUCGCAUUCCAUAUUUCUUUCUUCCUCCAUCAAUCAUAUGAAGCAGACUUCUUUCUGCCGUACCUGCCAACAUUUUGGGUCUCAGUCUCAGCCUGAAUGGACAGGAGCACUUCCGAAUGCCAUCAGCGUUAUAGAGAACAAGCACCAACUCUUCCCUUAAAUCUUUUUUAAGAAGAGAAAUGCCUAUUCUAUUUUGUGCCACUGUCGUAUAUCGAUUUGAUCGUAAAAGACGCCCACUCGUAGAUGAUGUGAAAAAUAAAAAAAGUAAGAGGAAAGCCUUCAAUUCAAGCUCUCAAAUGGUAUCCUCCCUUGCCAUGUGUCUUGUGAAUAAAAGACAACGAAGAAAAUAUCGAGAAUAUGAAUCCCACUUUUUUUCUAUCUAGAAAUGCGAAAUGCAGCAAAAUGCAAUGUCGAAAAUAUUUUGCAAAUCUUCCAUAGUGGAGGACUUCAUGAUCCAUGGAAAUGCUGAAAGCAGGACCAGUAAGAUUUUUGGAGAACAUGUCUAUCGUAAUGCGUUUCUUGGAAAACCUAGAUGAAAGCUUAUAUAGCCC
Botrytis cinerea conidia; 25 ppm dsRNA
  Average % Reduction in Biomass: 13%
Botrytis cinerea conidia; 150 ppm dsRNA
  Average % Reduction in Biomass: 26%
B. cinerea
  Disease state compared to treatment with the chemical standard (AUDPC): no significant difference
